Blank lines part the entries; values can stand above or below the binder they belong to. Square brackets hold non-standard residues; d marks the D form. Ends that are not written are not given here. Tyr(3-NO2) = N[C@@H](Cc1ccc(O)c([N+](=O)[O-])c1)C(=O)O; pS = N[C@@H](COP(=O)(O)O)C(=O)O
B1: AB1 having a murinised VL of SEQ ID NO: 9 and a murinised VH of SEQ ID NO.: 10 (antibody, V domains shown)
VH: QVQLKESGPGLVAPSQSLSITCTVSGIDLSTWRMNWVRQPPGKGLEWIGIIGTGGRTYYANWAKGRFSISKDSTQVFLKMNSLQTEDTATYFCARLGANNNGYPLDLWGAGTTVTVSS
VL: DVVMTQSPASLAVSLGQRATISCQASQSVSSYLAWYQQKPGQPPKLLIYAASYLASGVPSRFKGSGSGTEFTLNIHPVEEEDAATYYCQQGYTRTDIDNTFGGGTKLEIK
B2: mFab from murinised mAB1 antibody with light chain of SEQ ID No.: 58 and heavy chain of SEQ ID No.: 59 (Fab, V domains shown)
VH: B1 VH
VL: DVVMTQSPASLAVSLGQRATISCQASQSVSSYLAWYQQKPGQPPKLLIYAASYLASGVPSRFKGSGSGTEFTLNIHPVEEEDAATYYCQQGYTRTDIDNTFGGGTKLEIKR
notes: Fab made by ficin cleavage of the whole antibody; also called mFab from mAB1
B3: Tau-binding antibody having the light chain of SEQ ID No.: 17 and the heavy chain of SEQ ID No.:23 (antibody, human IgG1, kappa)
light: DIQMTQSPSSLSASVGDRVTITCQASQSVSSYLAWYQQKPGKAPKLLIYAASYLASGVPSRFSGSGSGTDFTLTISSLQPEDFATYYCQQGYTRTDIDNTFGGGTKVEIKRTVAAPSVFIFPPSDEQLKSGTASVVCLLNNFYPREAKVQWKVDNALQSGNSQESVTEQDSKDSTYSLSSTLTLSKADYEKHKVYACEVTHQGLSSPVTKSFNRGEC
heavy: not shown
B4: Tau-binding antibody having the light chain of SEQ ID No.: 17 and the heavy chain of SEQ ID No.:24 (antibody, human IgG1, kappa)
light: B3 light
heavy: not shown
B5: Tau-binding humanised antibody having the light chain of SEQ ID NO: 17 and the heavy chain of SEQ ID NO: 20 (antibody, human IgG4 S228P, kappa)
light: B3 light
heavy: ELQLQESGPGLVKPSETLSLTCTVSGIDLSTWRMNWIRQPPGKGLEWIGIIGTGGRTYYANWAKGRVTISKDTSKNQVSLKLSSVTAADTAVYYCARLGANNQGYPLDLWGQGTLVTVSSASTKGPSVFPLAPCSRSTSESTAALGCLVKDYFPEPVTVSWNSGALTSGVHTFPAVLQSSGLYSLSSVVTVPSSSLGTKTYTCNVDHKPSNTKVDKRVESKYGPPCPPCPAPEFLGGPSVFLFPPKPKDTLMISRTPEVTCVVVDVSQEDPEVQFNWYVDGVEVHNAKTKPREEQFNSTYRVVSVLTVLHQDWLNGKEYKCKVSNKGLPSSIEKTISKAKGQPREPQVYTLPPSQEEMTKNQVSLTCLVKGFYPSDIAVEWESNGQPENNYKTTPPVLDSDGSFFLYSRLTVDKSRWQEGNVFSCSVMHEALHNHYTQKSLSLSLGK
B6: Tau-binding antibody having the light chain of SEQ ID No.: 17 and the heavy chain of SEQ ID No.:21 (antibody, human IgG4 S228P, kappa)
light: B3 light
heavy: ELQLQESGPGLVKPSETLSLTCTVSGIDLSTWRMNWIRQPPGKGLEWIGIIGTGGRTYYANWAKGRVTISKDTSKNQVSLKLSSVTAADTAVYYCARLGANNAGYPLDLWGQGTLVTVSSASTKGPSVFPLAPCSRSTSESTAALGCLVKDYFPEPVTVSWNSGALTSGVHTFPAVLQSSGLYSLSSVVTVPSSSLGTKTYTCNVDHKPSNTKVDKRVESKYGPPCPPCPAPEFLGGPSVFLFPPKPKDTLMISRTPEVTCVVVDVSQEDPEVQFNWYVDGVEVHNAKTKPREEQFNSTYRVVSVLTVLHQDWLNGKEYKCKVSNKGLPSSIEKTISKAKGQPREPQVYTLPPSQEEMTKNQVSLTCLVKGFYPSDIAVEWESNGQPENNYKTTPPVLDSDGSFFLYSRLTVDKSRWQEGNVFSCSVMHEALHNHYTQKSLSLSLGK

How the values were obtained:
[1] = molecular target: T1, Tau seeds: sonicated human insoluble Tau from patients with Alzheimer's disease (AD-PHF, fraction 8) (human, UniProt P10636-8 2-441, limits assumed); test: cell-based or functional assay
[2] = molecular target: T2, Tau seeds: brain fraction from transgenic mice expressing human Tau P301L (human, UniProt P10636-8 1-441, limits assumed); test: cell-based or functional assay
[3] = molecular target: Tau seeds: sonicated human insoluble Tau from patients with frontotemporal dementia (FTD-PHF) (human, UniProt P10636-8 2-441, limits assumed); test: cell-based or functional assay
[4] = molecular target: T3, Tau seeds: sonicated human insoluble Tau from patients with progressive supranuclear palsy (PSP-PHF, fraction … (human, UniProt P10636-8 2-441, limits assumed)); test: cell-based or functional assay
[5] = molecular target: T1, Tau seeds: sonicated human insoluble …; test: cell-based or functional assay; remark: listed apart in the source
[6] = molecular target: T2, Tau seeds: brain fraction from …; test: cell-based or functional assay; remark: listed apart in the source
[7] = molecular target: T3, Tau seeds: sonicated human insoluble …; test: cell-based or functional assay; remark: listed apart in the source
[8] = molecular target: T4, insoluble Tau protein preparation from Alzheimer's disease patients (AD-PHF), immobilised for Biacore (human, UniProt P10636-8 2-441, limits assumed); test: SPR (Biacore T200), AD-PHF (fraction 11) amine-immobilised on CM5, mFab as analyte
T4 construct: also called AD-PHF, fraction 11; Tau PHF fibrils from Alzheimer's disease patients
Procedure: (§1) Selected monoclonal Fab fragments (mFab) were prepared from murinised mAB 1 antibody with light chain of SEQ ID No.: 58 and heavy chain of SEQ ID No.: 59 using the Pierce Ficin cleavage kit (Cat. No. 44980, Thermo Scientific) according to the protocol of the manufacturer. Absorption at 280 nm was used to determine the concentration of the Fab stock solutions for the Biacore analysis. An insoluble Tau protein preparation from Alzheimer's disease patients (AD-PHF, fraction 11), the HEK-derived Tau isoform-2 monomers (amino acids 1-441), and the isoform-2 monomers expressed in E. coli were amine immobilized onto the CM5 chip, and binding of anti-Tau mFabs was measured with the Biacore T200 instrument. The buffer HBS-EP from GE Healthcare was used for immobilizations apart from the AD-PHF for which 10 mM acetic acid (pH3.0) was used. The HBS-EP+ buffer was supplemented with 300 mM NaCl and 1.25% CM-Dextran (Sigma) and used as the assay buffer. While flow cell (Fc) 1 was used as a reference, the following RU values were obtained for Fc2-4: 44 RU with 5 ug/ml E. coli Tau, 56 RU with 5 ug/m HEK Tau, and 500 RU with a 1:20 diluted solution of the AD-PHF material. Two 60 s cycles of 10 mM Glycine (pH1.7) were used for regeneration. Flow rates of 10 ul/min were used for immobilization and regeneration while a 30 ul/min flow rate was used for analyte binding. For AD-PHF, multiple manual injections were applied to reach 500 RU, including EDC/NHS and EtoA capping. Five start-up cycles and 12 cycles per mFab sample or buffer control were applied, using 90 uls analyte injections for either 180 s or 300 s for dissociation. 11 1:3 dilutions of a 600 nM solution plus buffer were used for each mFab.

[9] = molecular target: T5, HEK-derived Tau isoform-2 monomers (amino acids 1-441) (human, UniProt P10636 1-758); test: SPR (Biacore T200), Tau amine-immobilised on CM5, mFab as analyte
T5 construct: Expressed in Expi293F cells, N-terminal 10His-TEV tag removed with TEV protease; phosphorylation state not described; also called HEK iso-2; HEK Tau
Procedure: as §1, with “For AD-PHF, multiple manual injections were applied to reach 500 RU, including EDC/NHS and EtoA capping. Five start-up cycles and 12 cycles per mFab sample or buffer control were applied, using 90 uls analyte injections for either 180 s or 300 s for dissociation. 11 1:3 dilutions of a 600 nM solution plus buffer were used for each mFab.” left out

[10] = molecular target: B5; test: SPR competition: no significant inhibition of L17H20 binding to immobilised HEK Tau isoform-2
Description: Recombinant Tau isoform-2 monomer (amino acids 1-441), expressed and purified from HEK cells, and insoluble Tau protein in the form of a paired helical filament preparation isolated from Alzheimer's disease patient brain (AD-PHF), were amine immobilized onto the CM5 chip using a Biacore 3000 instrument and HBS-EP (GE Healthcare) as running buffer. The former were amine coupled to flow cells 2 and 4 respectively following activation of the carboxymethyl dextran surface these and reference flow cells by injection of 70 μl of a fresh mixture of 50 mM N-hydroxysuccimide and 200 mM 1-ethyl-3-(3-dimethylaminopropyl)-carbodiimide at a flow rate of 10 μl/min. Immobilization of tau monomer was achieved by injecting 160 μl at 50 μg/ml in 10 mM acetate pH 5.0 buffer, whereas AD-PHF was immobilized by injecting twenty 160 μl aliquots at 2 μg/ml in 10 mM acetic acid (pH3.0). […]
Epitope mapping was carried out by pre-incubating solutions of a Tau-binding humanised antibody having the light chain of SEQ ID NO: 17 and the heavy chain of SEQ ID NO: 20 (L17H20) and test peptide or buffer controls, prepared in running buffer at 200 nM and 5000 nM respectively. […] Response units of antibody binding were recorded at report points taken 15 sec after the end of each injection as the difference between values of test and reference flow cells. […]

Tau seeds: sonicated human insoluble Tau from patients with frontotemporal dementia (FTD-PHF), sequence (P10636 other isoform, or with tags, fused parts or gaps limits assumed): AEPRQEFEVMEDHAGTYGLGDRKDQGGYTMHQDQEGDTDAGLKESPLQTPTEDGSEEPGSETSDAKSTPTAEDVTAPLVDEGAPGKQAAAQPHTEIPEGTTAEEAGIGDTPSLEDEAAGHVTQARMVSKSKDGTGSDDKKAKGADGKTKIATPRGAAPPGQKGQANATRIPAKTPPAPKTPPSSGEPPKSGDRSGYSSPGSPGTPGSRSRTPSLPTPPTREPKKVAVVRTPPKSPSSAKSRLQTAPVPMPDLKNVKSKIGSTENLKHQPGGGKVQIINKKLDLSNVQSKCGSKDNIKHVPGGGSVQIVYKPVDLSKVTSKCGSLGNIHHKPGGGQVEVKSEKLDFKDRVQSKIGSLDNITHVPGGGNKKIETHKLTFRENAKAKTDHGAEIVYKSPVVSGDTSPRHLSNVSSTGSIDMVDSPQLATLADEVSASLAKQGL
T3 sequence (P10636 other isoform, or with tags, fused parts or gaps limits assumed): as above
T4 sequence (P10636 other isoform, or with tags, fused parts or gaps limits assumed): as above
T1 sequence (P10636 other isoform, or with tags, fused parts or gaps limits assumed): as above
T2 sequence (P10636 other isoform, or with tags, fused parts or gaps P301L P301L limits assumed): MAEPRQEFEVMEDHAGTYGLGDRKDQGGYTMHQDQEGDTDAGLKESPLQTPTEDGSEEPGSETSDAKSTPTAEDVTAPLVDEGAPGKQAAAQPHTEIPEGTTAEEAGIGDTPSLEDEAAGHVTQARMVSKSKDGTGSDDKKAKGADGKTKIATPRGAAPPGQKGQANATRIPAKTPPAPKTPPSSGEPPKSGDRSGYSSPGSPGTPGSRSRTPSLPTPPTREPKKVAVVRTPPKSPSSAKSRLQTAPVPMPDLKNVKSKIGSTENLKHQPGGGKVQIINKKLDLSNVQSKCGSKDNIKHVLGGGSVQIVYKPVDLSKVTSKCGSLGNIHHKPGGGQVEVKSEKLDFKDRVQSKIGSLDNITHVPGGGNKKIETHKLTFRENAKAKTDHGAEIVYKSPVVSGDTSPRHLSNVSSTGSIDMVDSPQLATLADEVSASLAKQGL
T5 sequence (P10636 other isoform, or with tags, fused parts or gaps): as the sequence (P10636 other isoform, or with tags, fused parts or gaps P301L P301L limits assumed) above, with L301P counted along it

Binder: B1
IC50, cellular Tau aggregation assay [1]: 10 nM
Imax (maximal efficacy at 300 nM), cellular Tau aggregation assay [1]: 79%
IC50, cellular Tau aggregation assay [2]: 9 nM
Imax (maximal efficacy at 300 nM), cellular Tau aggregation assay [2]: 81%
IC50, cellular Tau aggregation assay [3]: 1 nM
Imax (maximal efficacy at 300 nM), cellular Tau aggregation assay [3]: 81%
Imax (maximal efficacy at 300 nM), cellular Tau aggregation assay [4]: 54%
IC50, cellular Tau aggregation assay (n=3) [5]: 27 nM
IC50, cellular Tau aggregation assay (n=2) [6]: 15 nM
IC50, cellular Tau aggregation assay (n=3) [7]: 70 nM

Binder: B2
Kd [8]: 590 nM
koff [8]: 0.047 s⁻¹
kon [8]: 79600 M⁻¹ s⁻¹
binding result [9]: no binding (tested: 600 nM)

Binder: B3
Imax (maximal efficacy at 300 nM), cellular Tau aggregation assay [4]: 49%

Binder: B4
Imax (maximal efficacy at 300 nM), cellular Tau aggregation assay [4]: 47%

Binder: B5
IC50, cellular Tau aggregation assay [1]: 2 nM
Imax (maximal efficacy at 300 nM), cellular Tau aggregation assay [1]: 85%
IC50, cellular Tau aggregation assay [3]: 1 nM
Imax (maximal efficacy at 300 nM), cellular Tau aggregation assay [3]: 79%
IC50, cellular Tau aggregation assay [4]: 42 nM
Imax (maximal efficacy at 300 nM), cellular Tau aggregation assay [4]: 65%

Binder: B6
IC50, cellular Tau aggregation assay [4]: 66 nM
Imax (maximal efficacy at 300 nM), cellular Tau aggregation assay [4]: 47%

binding result [10]: no binding (tested: 5000 nM peptide)
Binder: [Tyr(3-NO2)][pS][pS]PG [T197H test peptide (nY pS pS P G)]
